Experiments:
vGalDH = target: T1, vGalDH (synthetic construct, UniProt Z9D058OTD2); assay: cytochrome c reduction at […] nm, Michaelis-Menten fit; assay type: biochemical; conditions: 50 μM equine cytochrome c, 50 mM potassium phosphate pH 8, 25 °C
T1 construct: SUMO cleaved for crystals; noncovalent FAD
T1 sequence (Z9D058OTD2 110-619): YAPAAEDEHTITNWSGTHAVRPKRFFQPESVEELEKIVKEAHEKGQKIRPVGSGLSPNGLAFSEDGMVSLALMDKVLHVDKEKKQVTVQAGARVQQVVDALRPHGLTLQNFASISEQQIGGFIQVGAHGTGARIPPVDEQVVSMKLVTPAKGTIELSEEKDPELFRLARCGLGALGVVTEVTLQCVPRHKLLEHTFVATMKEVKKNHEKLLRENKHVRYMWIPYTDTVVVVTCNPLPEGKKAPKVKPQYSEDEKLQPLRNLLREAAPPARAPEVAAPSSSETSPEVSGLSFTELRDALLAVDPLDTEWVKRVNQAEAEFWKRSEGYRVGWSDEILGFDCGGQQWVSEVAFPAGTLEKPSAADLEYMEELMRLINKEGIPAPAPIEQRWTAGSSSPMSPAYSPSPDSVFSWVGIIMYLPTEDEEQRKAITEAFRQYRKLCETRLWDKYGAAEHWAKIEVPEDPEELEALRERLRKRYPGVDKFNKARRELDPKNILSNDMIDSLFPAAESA

[1] = substrate: O=C1O[C@H]([C@@H](O)CO)[C@H](O)[C@@H]1O; assay: oxygen consumption (Oxygraph), Michaelis-Menten fit; assay type: biochemical, synthetic construct; conditions: oxygen as co-substrate, 50 mM potassium phosphate pH 8, 25 °C
Description: (§1) oxygen consumption (Oxygraph), Michaelis-Menten fit on tGULO | KM values in the sub-millimolar range were measured for mGULO and tGULO | also L-galactono-1,4-lactone (i.e.: GalDH substrate; Fig. 1A) and D-arabino-1,4-lactone (ALO substrate) are effectively oxidized

[2] = substrate: O=C1O[C@H]([C@@H](O)CO)[C@@H](O)[C@@H]1O; assay: as above; assay type: biochemical, synthetic construct; conditions: oxygen as co-substrate, 50 mM potassium phosphate pH 8, 25 °C
Description: as §1

[3] = substrate: O=C1O[C@H](CO)[C@@H](O)[C@@H]1O; assay: as above; assay type: biochemical, synthetic construct; conditions: oxygen as co-substrate, 50 mM potassium phosphate pH 8, 25 °C
Description: as §1

[4] = substrate: O=C1O[C@H]([C@@H](O)CO)[C@H](O)[C@@H]1O; assay: as above; assay type: biochemical, synthetic construct; conditions: oxygen as co-substrate, 50 mM potassium phosphate pH 8, 25 °C; remark: listed apart in the source
From the text: (§2) oxygen consumption (Oxygraph), Michaelis-Menten fit on cGULO

[5] = substrate: O=C1O[C@H]([C@@H](O)CO)[C@@H](O)[C@@H]1O; assay: as above; assay type: biochemical, synthetic construct; conditions: oxygen as co-substrate, 50 mM potassium phosphate pH 8, 25 °C; remark: listed apart in the source
From the text: as §2

[6] = substrate: O=C1O[C@H](CO)[C@@H](O)[C@@H]1O; assay: as above; assay type: biochemical, synthetic construct; conditions: oxygen as co-substrate, 50 mM potassium phosphate pH 8, 25 °C; remark: listed apart in the source
From the text: as §2

[7] = substrate: O=C1O[C@H]([C@@H](O)CO)[C@H](O)[C@@H]1O; assay: as above; assay type: biochemical, synthetic construct; conditions: oxygen as co-substrate, 50 mM potassium phosphate pH 8, 25 °C; remark: listed apart in the source
From the text: (§3) oxygen consumption (Oxygraph), Michaelis-Menten fit on mGULO

[8] = substrate: O=C1O[C@H]([C@@H](O)CO)[C@@H](O)[C@@H]1O; assay: as above; assay type: biochemical, synthetic construct; conditions: oxygen as co-substrate, 50 mM potassium phosphate pH 8, 25 °C; remark: listed apart in the source
From the text: as §3

[9] = substrate: O=C1O[C@H](CO)[C@@H](O)[C@@H]1O; assay: as above; assay type: biochemical, synthetic construct; conditions: oxygen as co-substrate, 50 mM potassium phosphate pH 8, 25 °C; remark: listed apart in the source
From the text: as §3

[10] = substrate: O=C1O[C@H]([C@@H](O)CO)[C@H](O)[C@@H]1O; assay: as above; assay type: biochemical, synthetic construct; conditions: oxygen as co-substrate, 50 mM potassium phosphate pH 8, 25 °C; remark: listed apart in the source
[11] = substrate: O=C1O[C@H]([C@@H](O)CO)[C@@H](O)[C@@H]1O; assay: as above; assay type: biochemical, synthetic construct; conditions: oxygen as co-substrate, 50 mM potassium phosphate pH 8, 25 °C; remark: listed apart in the source
[12] = substrate: O=C1O[C@H](CO)[C@@H](O)[C@@H]1O; assay: as above; assay type: biochemical, synthetic construct; conditions: oxygen as co-substrate, 50 mM potassium phosphate pH 8, 25 °C; remark: listed apart in the source

With `O=C1O[C@H]([C@@H](O)CO)[C@H](O)[C@@H]1O` [L-gulono-1,4-lactone] the Km (vGalDH) was 2100 ± 300 µM.

`O=C1O[C@H]([C@@H](O)CO)[C@@H](O)[C@@H]1O` [L-galactono-1,4-lactone] gave a Km (vGalDH) of 16.6 ± 2.6 µM.

`O=C1O[C@H](CO)[C@@H](O)[C@@H]1O` [D-arabino-1,4-lactone] was tested, and the Km (vGalDH) was 1100 ± 100 µM.

B1: tGULO (synthetic construct) (protein)
chain: MVQGHGGYKFQNWAQTYGCSPELYFQPTSVEEIKEILDLARQRSKRVKVVGGGHSPSDIACTDDFMIHMNKMNKILKVDKEKKQVTVEAGILLSDLNEELSKHGLALSNLGAVSDVAAAGVIGTGTHNTGIQHGILATQVVALTLMTASGEILECSESVNAELFQAARLHLGCLGVILTVTFQCVPAFHLQETQFPSTLKEVLDNLDSHLKKSEYFRFLWFPHTENVSVIYQDRTDKPPSSSANWFWDYAIGYYLLEFLLWISTFLPRLVPWINRFFFWLLYSGKVERVNLSYKVFNYECRFKQHVQDWAIPIEKTKEALLELKAWLESNPKVVAHFPVEVRFARGDDILLSPCYQRDSCYMNIIMYRPYGKDVPRQQYWLAYENIMKKVGGRPHWAKAHTCTRKDFEKMYPGFQKFCSIREKLDPTGMFLNTYLEKVFY
notes: His-SUMO fusion from pBAD in E. coli; membrane-associated, purified in reduced Triton X-100; covalent FAD
For B1, the Km [1] was 800 ± 200 µM, the kcat [1] was 7.3 ± 0.5 s⁻¹ and the Km [2] was 5400 ± 1200 µM. The kcat [2] was 1.3 ± 0.1 s⁻¹, the Km [3] was 9400 ± 900 µM and the kcat [3] was 2.9 ± 0.1 s⁻¹.

B2: cGULO (synthetic construct) (protein)
chain: MATGMKGYKFTNWAKTYSCQPELYFEPTTTEEIRQILELARQHSKRVKVVGCGHSPSDIACTTDYMISMKKFNKVLEVDKEKCQVTVQAGILLKDLNEELPKHGMALSNLGAVSDITVAGVISTGTHGTGVNYGILATHVVELTLMTASGEILKCSREENKDIFLAALCGLGALGIILTVTIQCEPAFKLHQKQFPCTLDEVLDNLDTHLKSSEHFRFMWFPHTDHVVVFHANRTDKPVQSTSSWFWDYLVGYYLLEFLLWISTFFPSLVPWINRFFFWLLYSQPKERVDRSDKVFNFECLFKQYVTEWAIPREKTAAVLLELKDWLESNPDFHAHFPVEVRFVRADDIYLSPCYQRDSCYINIIMYRPYGKDVPREKYWAAYEDIMMKVGGRPHWAKAHKVTAKDFQKMYPKFEKFCSIREKLDPQGMFLNSYLERVFF
notes: as for B1
In the case of B2, the Km [4] is reported as 6100 ± 700 µM, the kcat [4] is reported as 3.2 ± 0.1 s⁻¹ and the kcat/Km [4] is reported as 520 M⁻¹ s⁻¹. It also gave a Km [5] of 11800 ± 1200 µM, a kcat [5] of 3.5 ± 0.3 s⁻¹ and a kcat/Km [5] of 300 M⁻¹ s⁻¹. For the same molecule, the Km [6] was 48600 ± 24000 µM, the kcat [6] was 0.6 ± 0.1 s⁻¹ and the kcat/Km [6] was 12.3 M⁻¹ s⁻¹.

B3: mGULO (synthetic construct) (protein)
chain: MVHGHKGVKFQNWAKTYGCSPEMYFQPTSVEEIREVLDLARQQNKRVKVVGGGHSPSDIACTDGFMIHMGKMNRILKVDKEKKQVTVEAGILLADLNVELSKHGLALSNLGAVSDVTAAGVIGTGTHNTGIKHGILATQVVALTLLTASGTILECSESSNAELFQAARVHLGCLGVILTVTFQCVPQFHLQETSFPSTLKEVLDNLDSHLKKSEYFRFLWFPHSENVSVIYQDHTNKPPSSSANWFWDYAIGFYLLEFLLWISTFLPCLVPWINRFFFWLLFTGKVENSNLSYKIFNYECRFKQHVQDWAIPIEKTKEALLELKAMLESNPKVVAHYPVEVRFTRGDDILLSPCFQRDSCYMNIIMYRPYGKDVPRLDYWLAYETIMKKVGGRPHWAKAHTCTRKDFEKMYPAFQKFCAIREKLDPTGMFLNAYLEKVFY
notes: His-SUMO fusion from pBAD in E. coli (tag kept in stopped-flow); membrane-associated, purified in reduced Triton X-100; covalent FAD
Molecule B3 has a Km [7] of 800 ± 100 µM, a kcat [7] of 6.1 ± 0.1 s⁻¹ and a kcat/Km [7] of 7600 M⁻¹ s⁻¹. For the same molecule, the Km [8] was 1900 ± 200 µM, the kcat [8] was 4.2 ± 0.1 s⁻¹ and the kcat/Km [8] was 2200 M⁻¹ s⁻¹. It also gave a Km [9] of 3300 ± 400 µM, a kcat [9] of 0.5 ± 0.1 s⁻¹ and a kcat/Km [9] of 150 M⁻¹ s⁻¹.

B4: jGULO (synthetic construct) (protein)
chain: MVQGTEGYKFQNWAQTYSCQPELYFEPTSVEEIRQILELARQRSKRVKVVGCGHSPSDIACTDDYMIRMNKMNKILKVDKEKRQVTVEAGILLSDLNEELAKHGLALSNLGAVSDVTVAGVIGTGTHNTGIQHGILATQVVALTLMTASGEILECSESVNKEIFQAARLHLGALGVILTVTFQCEPAFRLHQQQFPSTLTEVLDNLDTHLKKSEYFRFLWFPHTDHVTVFYADRTDKPVQSTSSWFWDYAIGYYLLEFLLWISTFFPRLVPWINRFFFWLLYSAKVERVNRSDKVFNFECLFKQHVSDWAIPIEKTKAALLQLKEWLENNPDVRAHFPVEVRFVRADDILLSPCYQRDSCYINIIMYRPYGKDVPRERYWAAYEDIMKKVGGRPHWAKAHSCTRKDFEKMYPAFQKFCSIREKLDPSGMFLNTYLEKVFF
notes: as for B1
In the case of B4, the Km [10] is reported as 6900 ± 600 µM, the kcat [10] is reported as 3.9 ± 1.3 s⁻¹ and the Km [11] is reported as 7100 ± 800 µM. The kcat [11] was 8.0 ± 0.3 s⁻¹, the Km [12] was 10700 ± 2500 µM and the kcat [12] was 2.9 ± 0.3 s⁻¹.
